Measurements from article PMC7952371.

Biological target: T1, mixed lineage pseudokinase ligand (human (endogenous in post-mortem brain grey matter)), Q8NB16
T1 chain: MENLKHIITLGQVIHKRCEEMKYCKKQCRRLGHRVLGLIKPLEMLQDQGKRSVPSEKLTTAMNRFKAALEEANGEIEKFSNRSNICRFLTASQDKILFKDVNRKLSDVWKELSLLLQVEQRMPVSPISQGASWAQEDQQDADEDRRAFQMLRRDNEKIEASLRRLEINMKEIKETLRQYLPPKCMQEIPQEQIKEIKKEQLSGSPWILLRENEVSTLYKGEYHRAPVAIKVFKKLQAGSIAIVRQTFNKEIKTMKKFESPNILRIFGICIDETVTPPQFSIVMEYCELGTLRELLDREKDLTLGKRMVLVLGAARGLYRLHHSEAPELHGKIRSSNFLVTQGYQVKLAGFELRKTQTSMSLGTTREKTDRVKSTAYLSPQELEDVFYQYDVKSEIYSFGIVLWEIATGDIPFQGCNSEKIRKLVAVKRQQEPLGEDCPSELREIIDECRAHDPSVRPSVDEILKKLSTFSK
Assay: non-reducing gel electrophoresis and Western blot; MS grey matter extracted in native conditions (TBS, 0.1% Triton X-100); 3-8% Tris-acetate gels in non-reducing conditions; blot for MLKL
Conditions: remark: other sources report otherwise

stoichiometry N: 4
B1: mixed lineage pseudokinase ligand, Q8NB16 1-471 (natural protein)
chain: MENLKHIITLGQVIHKRCEEMKYCKKQCRRLGHRVLGLIKPLEMLQDQGKRSVPSEKLTTAMNRFKAALEEANGEIEKFSNRSNICRFLTASQDKILFKDVNRKLSDVWKELSLLLQVEQRMPVSPISQGASWAQEDQQDADEDRRAFQMLRRDNEKIEASLRRLEINMKEIKETLRQYLPPKCMQEIPQEQIKEIKKEQLSGSPWILLRENEVSTLYKGEYHRAPVAIKVFKKLQAGSIAIVRQTFNKEIKTMKKFESPNILRIFGICIDETVTPPQFSIVMEYCELGTLRELLDREKDLTLGKRMVLVLGAARGLYRLHHSEAPELHGKIRSSNFLVTQGYQVKLAGFELRKTQTSMSLGTTREKTDRVKSTAYLSPQELEDVFYQYDVKSEIYSFGIVLWEIATGDIPFQGCNSEKIRKLVAVKRQQEPLGEDCPSELREIIDECRAHDPSVRPSVDEILKKLSTFSK
